Measurements: publication PMC3466194

Biological target: TetR (Tet Repressor) (UniProt P04483)
Test: not stated in material (in vitro binding)
Conditions: not given in the material held (binding assay methods absent)

TetR (Tet Repressor), sequence (P04483 whole entry): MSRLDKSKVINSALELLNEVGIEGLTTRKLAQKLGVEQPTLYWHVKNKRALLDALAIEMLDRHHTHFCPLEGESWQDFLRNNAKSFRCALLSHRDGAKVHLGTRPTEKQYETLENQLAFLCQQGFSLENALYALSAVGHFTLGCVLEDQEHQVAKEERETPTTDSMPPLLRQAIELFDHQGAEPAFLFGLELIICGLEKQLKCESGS

With “GGGCUUGUUACCAGACAACCAUUACUUAUCCUAUCAAUCUGCCUUAUCCAAAGAUCCAAACGAAAAGAGAGACCACAUGGUCUUGUUAGAAUUUGUUACUUAAUCUAGAAAUUAUCUAGGAUCCAGGCAGAGAAAGGUCGAUACGGACGGAAUGUGAUGGCCUGGAUCCAACACAAAACUCGAGAACAUCCCGGGAAAAUCUAGAAUUCCUUCGAUAGAUCAAUUUUUUUCUUUUCUCUUUCCCCAUCCUUUACGCUAAAAUAAUAGUUUAUUUUAUUUUUUGAAUAUUUUUUAUUUAUAUACGUAUAUAUAGACUAUUAUUUAUCUUUUAAUGAUU [3'UTR + aptamer (vYFPΔ-5-1.2 bases 613-946)]” the Kd was 0.8 nM.
